Publication PMC1363732, “SUV39H1 interacts with HTLV-1 Tax and abrogates Tax transactivation of HTLV-1 LTR” (Retrovirology, 2006)

T1: GST-SUV39H1 ΔSET (human, UniProt O43463 1-249)
T1 construct: human SUV39H1 that lost the SET domain and the C-terminal cysteine-rich region but keeps the SET-associated Cys-rich (SAC) domain; the text states no limits; source: bacterially expressed (pGEX5X-3), purified (Glutathione Sepharose 4B)
T1 sequence (looked up): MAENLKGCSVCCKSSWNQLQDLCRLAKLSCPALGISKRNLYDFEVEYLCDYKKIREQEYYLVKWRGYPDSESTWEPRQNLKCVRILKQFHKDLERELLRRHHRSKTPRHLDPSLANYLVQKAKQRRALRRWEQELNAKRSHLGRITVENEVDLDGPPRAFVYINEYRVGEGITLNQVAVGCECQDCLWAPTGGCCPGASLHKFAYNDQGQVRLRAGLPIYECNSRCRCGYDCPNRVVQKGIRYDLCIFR

T2: GST-SUV39H1 Nchromo (human, UniProt O43463 1-118)
T2 construct: human SUV39H1, C-terminal deletion up to amino acid 118 (SAC domain lost); source: bacterially expressed (pGEX5X-3), purified (Glutathione Sepharose 4B)
T2 sequence (looked up): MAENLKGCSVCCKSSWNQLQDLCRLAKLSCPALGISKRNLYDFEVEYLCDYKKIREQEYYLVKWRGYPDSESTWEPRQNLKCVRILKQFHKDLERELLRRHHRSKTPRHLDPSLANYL

T3: bacterially expressed GST-SUV39H1, wild type (human, UniProt O43463 1-412)
T3 construct: human SUV39H1, wild type; cDNA amplified from the start to the stop codon (SUV39H1-F1, SUV39H1-R1); the text counts the protein to amino acid 412; also called SUV39H1-WT; GST-fusion SUV39H1; source: bacterially expressed (pGEX5X-3), purified (Glutathione Sepharose 4B)
T3 sequence (looked up): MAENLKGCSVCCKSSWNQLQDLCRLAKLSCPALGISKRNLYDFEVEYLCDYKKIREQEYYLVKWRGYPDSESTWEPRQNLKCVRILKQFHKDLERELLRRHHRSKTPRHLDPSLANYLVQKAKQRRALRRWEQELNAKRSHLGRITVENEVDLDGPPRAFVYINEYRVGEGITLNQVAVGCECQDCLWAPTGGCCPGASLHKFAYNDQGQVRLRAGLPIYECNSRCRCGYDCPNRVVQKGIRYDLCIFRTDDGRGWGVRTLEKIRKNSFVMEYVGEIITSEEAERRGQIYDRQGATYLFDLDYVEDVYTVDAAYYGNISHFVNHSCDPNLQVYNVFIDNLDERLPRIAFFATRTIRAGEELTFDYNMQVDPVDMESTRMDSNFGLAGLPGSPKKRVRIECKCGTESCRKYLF

B1: histidine-tagged wild type Tax (His-Tax) (natural protein)
chain: not shown
notes: Tax protein of HTLV-1, wild type; also called His-tagged Tax protein; source: bacterially expressed (pET3d/Tax), purified (ProBond Resin)
B2: in vitro translated TaxN180 (domain or fragment)
chain: not shown
modifications: labeled with 35S-methionine
notes: HTLV-1 Tax with a C-terminal deletion up to 180 amino acids; source: in vitro translated (TNT QuickCoupled Transcription/Translation Systems, Promega)

Experiments:
GST-SUV39H1 ΔSET = molecular target: T1, GST-SUV39H1 ΔSET; experiment: pull-down; wild type or mutant GST-SUV39H1 or GST (2 ug) bound to Glutathione-Sepharose 4B, mixed with His-tagged Tax (2 ug) in cold PBS, 4°C, one hour; immunoblot with Lt-4; band intensities by NIH Image; details: both partners purified
GST-SUV39H1 Nchromo = molecular target: T2, GST-SUV39H1 Nchromo; experiment: as above; details: both partners purified
[1] = molecular target: T3, bacterially expressed GST-SUV39H1, wild …; experiment: pull-down; GST-SUV39H1 bound to Glutathione-Sepharose 4B, mixed with in vitro translated 35S-labeled Tax proteins (one fourth of the reaction mixture); autoradiography, signals by BAS2000; details: one partner purified

Binder	band intensity relative to the wild type (GST-SUV39H1 ΔSET)	band intensity relative to the wild type (GST-SUV39H1 Nchromo)	radioactivity relative to the wild type Tax [1]
B1	< 0.5 of the band intensity of the wild type	~0.1 of the band intensity of the wild type	
B2			~0.5 of the radioactivity of the wild type Tax
